Measured values from PMC5874296, “A CTP Synthase Undergoing Stage-Specific Spatial Expression Is Essential for the Survival of the Intracellular Parasite Toxoplasma gondii” (Frontiers in Cellular and Infection Microbiology, 2018).

T1: TgCTPS (CTP synthase) (Toxoplasma gondii, UniProt B9Q379)
T1 sequence (B9Q379 1-652): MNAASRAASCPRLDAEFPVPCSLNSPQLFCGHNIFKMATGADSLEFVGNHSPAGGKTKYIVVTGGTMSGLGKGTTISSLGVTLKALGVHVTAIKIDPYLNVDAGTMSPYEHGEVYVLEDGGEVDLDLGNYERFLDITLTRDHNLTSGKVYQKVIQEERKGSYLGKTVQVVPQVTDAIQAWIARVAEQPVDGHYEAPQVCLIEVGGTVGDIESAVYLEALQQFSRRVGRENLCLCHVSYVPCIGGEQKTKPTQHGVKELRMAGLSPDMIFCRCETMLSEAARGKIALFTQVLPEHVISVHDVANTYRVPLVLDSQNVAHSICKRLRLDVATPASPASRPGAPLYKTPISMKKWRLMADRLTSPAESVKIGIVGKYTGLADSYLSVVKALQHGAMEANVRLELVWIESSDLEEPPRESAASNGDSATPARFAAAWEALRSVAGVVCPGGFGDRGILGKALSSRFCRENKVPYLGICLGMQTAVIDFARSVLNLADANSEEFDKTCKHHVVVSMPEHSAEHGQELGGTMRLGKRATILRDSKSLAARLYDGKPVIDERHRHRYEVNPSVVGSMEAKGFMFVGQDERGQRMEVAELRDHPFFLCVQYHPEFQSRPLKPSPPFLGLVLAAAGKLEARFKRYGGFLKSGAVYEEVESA

B1: TgCTPS (CTP synthase) (Toxoplasma gondii) (protein)
chain: T1 sequence (B9Q379 1-652)

Columns and labels:
TgCTPS (CTP synthase) = biological target: T1, TgCTPS (CTP synthase); test: pyruvate kinase/lactate dehydrogenase-coupled assay with recombinant enzyme; type: biochemical
[1] = substrate: NC(=O)CC[C@H](N)C(=O)O; test: steady-state kinetics, coupled enzyme assay (Km); type: biochemical, Toxoplasma gondii; conditions: Mg2+ negative cooperativity in the binding of L-glutamine to the active site; 37.0 °C
[2] = substrate: Nc1ncnc2c1ncn2[C@@H]1O[C@H](COP(=O)(O)OP(=O)(O)OP(=O)(O)O)[C@@H](O)[C@H]1O; test: steady-state kinetics, coupled enzyme assay (Km); type: biochemical, Toxoplasma gondii; conditions: Mg2+; 37.0 °C
purified protein = substrate: O=c1ccn([C@@H]2O[C@H](COP(=O)(O)OP(=O)(O)OP(=O)(O)O)[C@@H](O)[C@H]2O)c(=O)[nH]1; test: purified protein; type: biochemical, Toxoplasma gondii; conditions: Mg2+

| Molecule | IC50 (TgCTPS (CTP synthase)) | Km [1] | kcat [1] | kcat/Km [1] | Km [2] | kcat [2] | kcat/Km [2] | K0.5 (purified protein) |
| --- | --- | --- | --- | --- | --- | --- | --- | --- |
| [N-]=[N+]=CC(=O)CC[C@H](N)C(=O)O [DON, 6-diazo-5-oxo-L-norleucine] | ~40 nM |  |  |  |  |  |  |  |
| B1 |  | 260 ± 40 µM | 29.6 s⁻¹ | 114000 M⁻¹ s⁻¹ | 540 ± 50 µM | 36 s⁻¹ | 66700 M⁻¹ s⁻¹ | 0.47 ± 0.03 mM |
